# Reference: patent US8580556B2, “Sulfonylurea-responsive repressor proteins” (E. I. du Pont de Nemours and Company, priority 2008, dated 2013)
# B1: L1-7: library L1 hit, sulfonylurea-responsive TetR(B) variant, SEQ ID NO: 4 (protein)
# chain: MGSRLDKSKVINSALELLNEVGIEGLTTRKLAQKLGVEQPTLYWHVKNKRALLDALAIEMLDRHNTHFCPLEGESWQDFLRNNAKSWRCALLSHRDGAKVVLGTAITEKQYETHENPLAFLCQQGFSLENALYAIAAVRRFTLGCVLVDQERQVAKEERETPTTDSMPPLLRQASELQDHQGAEPAFLFGLELIICGLEKQLKCERGS
# modifications: Sulfonylurea responsive repressor L1-07
# B2: L1-44: library L1 hit, sulfonylurea-responsive TetR(B) variant, SEQ ID NO: 13 (protein)
# chain: MGSRLDKSKVINSALELLNEVGIEGLTTRKLAQKLGVEQPTLYWHVKNKRALLDALAIEMLDRHATHFCPLEGESWQDFLRNNAKSYRCALLSHRDGAKVYLGTAVTEKQYETAENQLAFLCQQGFSLENALYAVKAVAGFTLGCVLWDQESQVAKEERETPTTASMPPLLRQAVELADHQGAEPAFLFGLELIICGLEKQLKCESGS
# modifications: Sulfonylurea responsive repressor L1-44
# B3: L1-22: library L1 hit, sulfonylurea-responsive TetR(B) variant, SEQ ID NO: 7 (protein)
# chain: MGSRLDKSKVINSALELLNEVGIEGLTTRKLAQKLGVEQPTLYWHVKNKRALLDALAIEMMDRHHTHFCPLEGESWQDFLRNTAKSYRCALLSHRDGAKVCLGTAITEKQYETKENNLAFLCQQGFSLENALYARQAVRVFTLGCVLFDQEMQVAKEERETPTTDSMPPLLRQASELLDHQGAEPAFLFGLELIICGLEKQLKSESGS
# modifications: Sulfornylurea responsive repressor L1-22
# B4: L1-21: library L1 reverse repressor hit (SEQ ID NO: 1206-1213) (protein)
# chain: MGSRLDKSKVINSALELLNEVGIEGLTTRKLAQKLGVEQPTLYWHVKNKRALLDALAIEMLDRHATHFCPLEGESWQDFLRNNAKSFRCALLSHRDGAKVCLGTAGTEKQYETLENCLAFLCQQGFSLENALYARSAVVCFTLGCVLFDQEMQVAKEERETPTTDSMPPLLRQAAELLDHQGAEPAFLFGLELIICGLEKQLKCESGS
# modifications: rSuR L1-21
# B5: L1-36: library L1 reverse repressor hit (SEQ ID NO: 1206-1213) (protein)
# chain: MGSRLDKSKVINSALELLNEVGIEGLTTRKLAQKLGVEQPTLYWHVKNKRALLDALAIEMADRHHTHFCPLEGESWQDFLRNAAKSMRCALLSHRDGAKVRLGTAWTEKQYETHENVLAFLCQQGFSLENALYALKAVSGFTLGCVLKDQEMQVAKEERETPTTDSMPPLLRQATELVDHQGAEPAFLFGLELIICGLEKQLKCESGS
# modifications: rSuR L1-36
# B6: L1-39: library L1 reverse repressor hit (SEQ ID NO: 1206-1213) (protein)
# chain: MGSRLDKSKVINSALELLNEVGIEGLTTRKLAQKLGVEQPTLYWHVKNKRALLDALAIEMMDRHQTHFCPLEGESWQDFLRNTAKSYRCALLSHRDGAKVILGTRWTEKQYETRENVLAFLCQQGFSLENALYAWAAVGPFTLGCVLRDQERQVAKEERETPTTDSMPPLLRQALELMDHQGAEPAFLFGLELIICGLEKQLKCESGS
# modifications: rSuR L1-39
# B7: L1-41: library L1 reverse repressor hit (SEQ ID NO: 1206-1213) (protein)
# chain: MGSRLDKSKVINSALELLNEVGIEGLTTRKLAQKLGVEQPTLYWHVKNKRALLDALAIEMLDRNQTHFCPLEGESWQDFLRNNAKSWRCALLSHRDGAKVMLGTRNTEKQYETAENGLAFLCQQGFSLENALYACRAVWTFTLGCVLDDQETQVAKEERETPTSDSMPPLLRQAMELKDHQGAEPAFLFGLELIICGLEKQLKCESGS
# modifications: rSuR L1-41
# B8: L1-18: library L1 reverse repressor hit (SEQ ID NO: 1206-1213) (protein)
# chain: MGSRLDKSKVINSALELLNEVGIEGLTTRKLAQKLGVEQPTLYWHVKNKRALLDALAIEMLDRHLTHFCPLEGESWQDFLRNNAKSMRCALLSHRDGAKVWLGTGFTEKQYETKENRLAFLCQQGFSLENALYAIRAVSRFTLGCVLQDQEPQVAKEERETPTTDSMPPLLRQAVELFDHQGAEPAFLFGLELIICGLEKQLKCESES
# modifications: rSuR L1-18
# Tested on: tetA promoter (PtetA)-lacZ reporter in E. coli KM3
# Format: cell-based
# Settings: Table 4; anhydrotetracycline 0.4 μM; 48 hrs at 30° C.
row,Molecule,"relative β-galactosidase activity, inducer atc"
1,B1,0.0
2,B2,0.2
3,B3,0.0

# Same assay, conditions: Table 4; chlorimuron 20 μg/ml (20 ppm); 48 hrs at 30° C.
row,Molecule,"relative β-galactosidase activity, inducer Ci"
1,B1,16.5
2,B2,6.7
3,B3,10.4

# Same assay, conditions: Table 4; chlorsulfuron 20 μg/ml (20 ppm); 48 hrs at 30° C.
row,Molecule,"relative β-galactosidase activity, inducer Cs"
1,B1,3.1
2,B3,0.2

# Same assay, conditions: Table 4; ethametsulfuron 20 μg/ml (20 ppm); 48 hrs at 30° C.
row,Molecule,"relative β-galactosidase activity, inducer Es"
1,B1,0.1
2,B3,0.3

# Same assay, conditions: Table 4; metsulfuron 20 μg/ml (20 ppm); 48 hrs at 30° C.
row,Molecule,"relative β-galactosidase activity, inducer Ms"
1,B1,0.2
2,B3,0.1

# Same assay, conditions: Table 4; nicosulfuron 20 μg/ml (20 ppm); 48 hrs at 30° C.
row,Molecule,"relative β-galactosidase activity, inducer Ns"
1,B1,0.1
2,B2,0.4
3,B3,0.2

# Same assay, conditions: Table 4; no inducer; 48 hrs at 30° C.
row,Molecule,"relative β-galactosidase activity, inducer None"
1,B1,0.0
2,B2,0.2
3,B3,0.1

# Same assay, conditions: Table 4; rimsulfuron 20 μg/ml (20 ppm); 48 hrs at 30° C.
row,Molecule,"relative β-galactosidase activity, inducer Rs"
1,B1,0.2
2,B2,0.3
3,B3,0.1

# Same assay, conditions: Table 4; sulfometuron 20 μg/ml (20 ppm); 48 hrs at 30° C.
row,Molecule,"relative β-galactosidase activity, inducer Sm"
1,B1,6.4
2,B2,0.4

# Same assay, conditions: Table 4; thifensulfuron 20 μg/ml (20 ppm); 48 hrs at 30° C.
row,Molecule,"relative β-galactosidase activity, inducer Ts"
1,B1,0.1
2,B2,1.9
3,B3,0.0

# Same assay, conditions: Table 4; tribenuron 20 μg/ml (20 ppm); 48 hrs at 30° C.
row,Molecule,"relative β-galactosidase activity, inducer Tb"
1,B1,0.2
2,B2,0.4
3,B3,0.3

# Same assay, conditions: Table 6, reverse repressor hits; anhydrotetracycline
row,Molecule,"relative β-galactosidase activity, inducer atc"
1,B4,2.81
2,B5,1.70
3,B6,4.92
4,B7,4.21
5,B8,2.35

# Same assay, conditions: Table 6, reverse repressor hits; chlorimuron, same plate assay format as Table 4
row,Molecule,"relative β-galactosidase activity, inducer Ci"
1,B4,0.07
2,B5,0.21
3,B6,0.49
4,B7,0.39
5,B8,0.36

# Same assay, conditions: Table 6, reverse repressor hits; chlorsulfuron, same plate assay format as Table 4
row,Molecule,"relative β-galactosidase activity, inducer Cs"
1,B4,0.89
2,B5,0.24
3,B6,0.89
4,B7,0.61
5,B8,1.22

# Same assay, conditions: Table 6, reverse repressor hits; ethametsulfuron, same plate assay format as Table 4
row,Molecule,"relative β-galactosidase activity, inducer Es"
1,B4,0.61
2,B5,0.20
3,B6,0.60
4,B7,0.18
5,B8,0.37

# Same assay, conditions: Table 6, reverse repressor hits; metsulfuron, same plate assay format as Table 4
row,Molecule,"relative β-galactosidase activity, inducer Ms"
1,B4,0.89
2,B5,0.38
3,B6,0.75
4,B7,0.56
5,B8,0.79

# Same assay, conditions: Table 6, reverse repressor hits; nicosulfuron, same plate assay format as Table 4
row,Molecule,"relative β-galactosidase activity, inducer Ns"
1,B4,2.74
2,B5,1.81
3,B6,3.03
4,B7,2.75
5,B8,1.44

# Same assay, conditions: Table 6, reverse repressor hits; no inducer
row,Molecule,"relative β-galactosidase activity, inducer Blank"
1,B4,2.88
2,B5,1.52
3,B6,3.65
4,B7,4.05
5,B8,1.34

# Same assay, conditions: Table 6, reverse repressor hits; rimsulfuron, same plate assay format as Table 4
row,Molecule,"relative β-galactosidase activity, inducer Rs"
1,B4,2.31
2,B5,1.84
3,B6,4.72
4,B7,4.05
5,B8,2.55

# Same assay, conditions: Table 6, reverse repressor hits; sulfometuron, same plate assay format as Table 4
row,Molecule,"relative β-galactosidase activity, inducer Sm"
1,B4,2.39
2,B5,0.50
3,B6,0.91
4,B7,0.67
5,B8,0.94

# Same assay, conditions: Table 6, reverse repressor hits; thifensulfuron, same plate assay format as Table 4
row,Molecule,"relative β-galactosidase activity, inducer Ts"
1,B4,0.79
2,B5,0.48
3,B6,1.42
4,B7,1.46
5,B8,1.13

# Same assay, conditions: Table 6, reverse repressor hits; tribenuron, same plate assay format as Table 4
row,Molecule,"relative β-galactosidase activity, inducer Tb"
1,B4,2.13
2,B5,0.57
3,B6,0.97
4,B7,1.41
5,B8,1.65

# Same assay, conditions: Table 8; inducers given as numbers without key
row,Molecule,Inducer preference
1,B2,9 (weak)
2,B3,3

# Same assay, conditions: Table 10; chlorsulfuron 2 ppm; 48 hours at 30° C.
row,Molecule,"relative β-galactosidase activity, inducer Cs"
1,B2,1.9
2,B3,0.2

# Same assay, conditions: Table 10; ethametsulfuron 2 ppm; 48 hours at 30° C.
row,Molecule,"relative β-galactosidase activity, inducer Es"
1,B2,1.0
2,B3,0.2

# Same assay, conditions: Table 10; metsulfuron 2 ppm; 48 hours at 30° C.
row,Molecule,"relative β-galactosidase activity, inducer Ms"
1,B2,0.5
2,B3,0.2

# Same assay, conditions: Table 10; no inducer; 48 hours at 30° C.
row,Molecule,"relative β-galactosidase activity, No inducer"
1,B2,0.6
2,B3,0.2

# Same assay, conditions: Table 10; sulfometuron 2 ppm; 48 hours at 30° C.
row,Molecule,"relative β-galactosidase activity, inducer Sm"
1,B2,0.6
2,B3,1.8
